Data: PMC4605308 (Nucleic Acids Research, 2015)

Biological target: T1, hexahistidine-tagged ubiquitin (the ubiquitin part of the Rad6^iso∼Ub conjugate) (human, UniProt P0CG48 1-76, C-terminus linked to K88 of Rad6 C88K via an isopeptide linkage)
T1 construct: ubiquitin, human; The final model holds two additional N-terminal residues from the plasmid vector; also called His6-Ub; Ub-His6; source: in the crystal conjugated to Rad6^C88K
Test: crystal structure; Rad6^iso∼Ub conjugate; sitting drop vapor diffusion at 20°C, 24% PEG 300, 50 mM sodium acetate, pH 5.4; one conjugate in the asymmetric unit, contacts between conjugates in the crystal
Settings: both partners purified

B1: Rad6 C88K (the Rad6 part of the Rad6^iso∼Ub conjugate) (enzyme, Saccharomyces cerevisiae, UniProt P06104 1-172, looked up)
chain: MSTPARRRLMRDFKRMKEDAPPGVSASPLPDNVMVWNAMIIGPADTPYEDGTFRLLLEFDEEYPNKPPHVKFLSEMFHPNVYANGEIKLDILQNRWTPTYDVASILTSIQSLFNDPNPASPANVEAATLFKDHKSQYVKRVKETVEKSWEDDMDDMDDDDDDDDDDDDDEAD
modifications: lysine at position 88 linked to the ubiquitin C-terminus via an isopeptide linkage
notes: Rad6, Saccharomyces cerevisiae, with C88K; Written on its own for the non-covalent contact between Rad6 of one conjugate and ubiquitin of another in the crystal; source: E. coli Rosetta2 DE3 pLysS, purified; in the crystal conjugated to His6-Ub; not shown: MBP, N-terminal, cleaved; His6, N-terminal, cleaved
Does B1 bind?
Result: binds
